Data taken from article PMC5437253.
pKd: −log10 of the molar value.

What was measured:
Experiment in all cases: SPR; Biacore 3000; antibodies immobilised on a CM5 chip by amine coupling at ~3000 RU; huFcRn flowed at 5 μl/min for 50 min, 19.5 nM to 10 μM, in PBS pH 5.8 with 5 mM EDTA and 0.05% Tween 20; steady-state fit
K248AzK (human) = molecular target: K248AzK (human)
K248AzK-mPEG (human) = molecular target: K248AzK-mPEG (human)
K288AzK (human) = molecular target: K288AzK (human)
K288AzK-CR110 (human) = molecular target: K288AzK-CR110 (human)
L309AzK (human) = molecular target: L309AzK (human)
L309AzK-CR110 (human) = molecular target: L309AzK-CR110 (human)
L309AzK-mPEG (human) = molecular target: L309AzK-mPEG (human)
M252AzK (human) = molecular target: M252AzK (human)
M252AzK-CR110 (human) = molecular target: M252AzK-CR110 (human)
M252AzK-mPEG (human) = molecular target: M252AzK-mPEG (human)
N286AzK-mPEG (human) = molecular target: N286AzK-mPEG (human)
N384AzK (human) = molecular target: N384AzK (human)
N384AzK-CR110 (human) = molecular target: N384AzK-CR110 (human)
N384AzK-mPEG (human) = molecular target: N384AzK-mPEG (human)
N434AzK (human) = molecular target: N434AzK (human)
Q311AzK (human) = molecular target: Q311AzK (human)
Q311AzK-CR110 (human) = molecular target: Q311AzK-CR110 (human)
Q311AzK-mPEG (human) = molecular target: Q311AzK-mPEG (human)
S254AzK (human) = molecular target: S254AzK (human)
S254AzK-CR110 (human) = molecular target: S254AzK-CR110 (human)
[1] = molecular target: wild-type antibody (human)

pKd (K248AzK (human)): 6.42 | pKd (K248AzK-mPEG (human)): 6.04 | pKd (K288AzK (human)): 6.38 | pKd (K288AzK-CR110 (human)): 6.25 | pKd (L309AzK (human)): 6.36 | pKd (L309AzK-CR110 (human)): 5.69 | pKd (L309AzK-mPEG (human)): 5.49 | pKd (M252AzK (human)): 6.60 | pKd (M252AzK-CR110 (human)): 5.69 | pKd (M252AzK-mPEG (human)): 5.45 | pKd (N286AzK-mPEG (human)): 5.55 | pKd (N384AzK (human)): 6.25 | pKd (N384AzK-CR110 (human)): 6.15 | pKd (N384AzK-mPEG (human)): 6.12 | pKd (N434AzK (human)): 6.13 | pKd (Q311AzK (human)): 6.49 | pKd (Q311AzK-CR110 (human)): 5.69 | pKd (Q311AzK-mPEG (human)): 5.41 | pKd (S254AzK (human)): 6.33 | pKd (S254AzK-CR110 (human)): 5.54 | pKd [1]: 6.27
Substance: Recombinant human FcRn (from UniProt P55899 24-297; P61769 21-119) (receptor)
